Data as given in PMC4310594.

Target: T1, RamA (Klebsiella pneumoniae (Ecl8?)) (UniProt Q48413)
T1 sequence: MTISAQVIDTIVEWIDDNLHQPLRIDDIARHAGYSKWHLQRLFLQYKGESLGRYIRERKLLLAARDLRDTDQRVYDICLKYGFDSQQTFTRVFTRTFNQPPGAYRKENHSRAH
Assay: EMSA

“GGAAACGATTGCCAGGACTGGTGCTTCAGGCCTGATAAACCGCTCACTTTGTTAACAACAGTGCTCAGATTTTAATGCATTATTAAAGATGCAGCTTTTCTGGCTGGCGCGTCCAGGATGCGCCAGGCTGGAAGAAGACCTTCAATCTGATGACGATGCTGTAGCAAAGTGAGCCTTTATGACTGACAAATCTGTTCCATTCTCGGTGCTCGATCTGGCGCCGATCCCGCAAGGATCTTCTGCCAAAGAAGCCTTTACCCA (double strand) [yhbW promoter]” was tested. Which binding did it give?
Its binding is “binds”.

“GCCTGCATAATCGTTTCCTGACAAAAAAGGGTATTGTGACCGATAGTCGCCCACTTGCAAAACCTCTCTGCGCGGTTGGTCATTACCCACCGCACAAATGGGACGTGTTTTTTCGGCTGAAATCGTTACAATCAGGAAATCATACTATCTGGAGTGAACCATGTTAGAGCTTTTGAAAAGTCTGGTTTTTGCGGTCATCATGGTACCGGTGGTGATGGCGGTCATCCTGGGACTGATTTACGGTCTTGGCGAAGTGTTCAAC (double strand) [ybhT promoter]” was tested. Which binding did it give?
Its binding is “binds”.

With “GCACTTCAACTAAATTCGCCTGAGTTTGGCTCATAAAATCATCCTTACTAAACACCTGACGGGCAAGCATGGCCCTTTCTTGCGCCACAATCACAACATTTTTACAGAATCTTACCTGCACAGGTTAGCGAAAGCTGGCATTTGTTTTACTTTTGGCACACATAAAGTCAAAATTAAGAATTCGTTACGCTGCGTAGGGATAACCCAGCGAGGCGACGATTATACCTGAAG (double strand) [yrbF promoter]” as the sequence, how does the binding read?
The binding was “binds”.
